Numbered stars: 1 amine (or outer) side, 2 acyl side, 3 side chain; on linkers, the order of the positions; unused ones are H or OH. Bridge positions count the residues as written; N and C are the ends. Square brackets hold non-standard residues; d marks the D form. Side chains are listed from the residue outwards. Ends that are not written are not given here. * marks the point of attachment. C18 diacid = O=C(O)CCCCCCCCCCCCCCCCC(=O)*; γGlu = O=C(O)[C@H](CCC(=O)[*:2])N[*:1]; αMeF = C[C@](N)(Cc1ccccc1)C(=O)O
Key:
Experiment in all cases: cell-based or functional assay
[1] = target: T1, rat calcitonin receptor (rat, UniProt P32214 25-516)
T1 sequence (looked up): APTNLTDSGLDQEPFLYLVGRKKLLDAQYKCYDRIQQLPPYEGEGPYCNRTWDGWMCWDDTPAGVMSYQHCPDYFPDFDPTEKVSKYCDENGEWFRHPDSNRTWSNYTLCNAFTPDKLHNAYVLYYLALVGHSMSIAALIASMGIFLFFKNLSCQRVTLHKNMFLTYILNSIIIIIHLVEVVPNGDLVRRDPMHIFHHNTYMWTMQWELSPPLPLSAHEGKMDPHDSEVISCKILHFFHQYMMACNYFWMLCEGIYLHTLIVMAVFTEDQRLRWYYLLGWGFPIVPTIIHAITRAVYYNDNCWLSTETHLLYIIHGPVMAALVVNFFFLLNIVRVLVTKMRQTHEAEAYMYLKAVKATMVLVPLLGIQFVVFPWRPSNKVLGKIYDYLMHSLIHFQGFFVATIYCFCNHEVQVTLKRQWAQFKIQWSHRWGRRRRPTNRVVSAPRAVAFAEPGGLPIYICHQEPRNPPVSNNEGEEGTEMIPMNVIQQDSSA

[2] = target: T2, rat amylin receptor (calcitonin receptor co-expressed with receptor activity modifying protein, RAMP3) (rat, UniProt P32214 25-516; Q9JJ73 23-147)
T2 sequence (looked up) 1: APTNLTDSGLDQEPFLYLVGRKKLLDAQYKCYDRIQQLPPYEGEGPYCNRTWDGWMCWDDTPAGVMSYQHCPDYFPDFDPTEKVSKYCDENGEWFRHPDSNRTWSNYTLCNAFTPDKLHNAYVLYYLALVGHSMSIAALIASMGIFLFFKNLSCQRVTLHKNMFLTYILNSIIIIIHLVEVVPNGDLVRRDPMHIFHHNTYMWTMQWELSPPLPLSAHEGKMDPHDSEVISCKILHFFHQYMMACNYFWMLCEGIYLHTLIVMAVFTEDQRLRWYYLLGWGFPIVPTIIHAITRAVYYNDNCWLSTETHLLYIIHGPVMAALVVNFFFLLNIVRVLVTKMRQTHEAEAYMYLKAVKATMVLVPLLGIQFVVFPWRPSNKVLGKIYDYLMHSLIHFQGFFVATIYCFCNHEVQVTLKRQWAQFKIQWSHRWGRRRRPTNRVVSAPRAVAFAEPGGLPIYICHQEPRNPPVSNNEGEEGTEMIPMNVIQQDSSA
T2 sequence (looked up) 2: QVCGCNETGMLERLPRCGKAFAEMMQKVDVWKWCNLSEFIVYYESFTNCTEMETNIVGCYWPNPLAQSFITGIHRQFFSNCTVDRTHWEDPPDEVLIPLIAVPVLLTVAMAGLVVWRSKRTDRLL

[3] = target: T3, human calcitonin receptor (human, UniProt P30988 25-474)
T3 sequence (looked up): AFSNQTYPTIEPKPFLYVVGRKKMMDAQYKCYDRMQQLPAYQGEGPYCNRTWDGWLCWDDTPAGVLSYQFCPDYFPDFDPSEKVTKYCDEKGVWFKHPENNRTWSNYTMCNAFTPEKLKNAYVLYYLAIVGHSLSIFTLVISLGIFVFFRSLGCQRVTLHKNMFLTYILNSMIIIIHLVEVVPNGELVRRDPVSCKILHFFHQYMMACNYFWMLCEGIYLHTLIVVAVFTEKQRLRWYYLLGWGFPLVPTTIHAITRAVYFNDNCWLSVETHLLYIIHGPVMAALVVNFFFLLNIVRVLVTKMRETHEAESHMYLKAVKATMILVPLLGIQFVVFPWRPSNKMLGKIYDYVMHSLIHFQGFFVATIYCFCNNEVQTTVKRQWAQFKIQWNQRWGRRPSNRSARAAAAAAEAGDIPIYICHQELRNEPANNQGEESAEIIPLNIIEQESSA

[4] = target: T4, human amylin receptor (calcitonin receptor co-expressed with receptor activity modifying protein, RAMP3) (human, UniProt P30988 25-474; O60896 24-148)
T4 sequence (looked up) 1: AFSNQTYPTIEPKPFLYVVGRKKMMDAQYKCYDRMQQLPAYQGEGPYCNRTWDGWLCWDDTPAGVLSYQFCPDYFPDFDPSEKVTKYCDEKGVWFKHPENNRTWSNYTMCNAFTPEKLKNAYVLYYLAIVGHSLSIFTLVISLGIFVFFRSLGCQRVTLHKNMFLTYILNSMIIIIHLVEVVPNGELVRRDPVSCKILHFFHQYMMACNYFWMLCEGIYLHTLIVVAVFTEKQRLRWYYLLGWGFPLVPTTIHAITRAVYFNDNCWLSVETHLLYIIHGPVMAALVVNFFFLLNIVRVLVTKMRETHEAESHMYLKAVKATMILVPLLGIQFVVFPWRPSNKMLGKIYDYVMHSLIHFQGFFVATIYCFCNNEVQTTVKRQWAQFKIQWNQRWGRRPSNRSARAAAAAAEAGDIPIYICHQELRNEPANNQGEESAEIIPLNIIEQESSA
T4 sequence (looked up) 2: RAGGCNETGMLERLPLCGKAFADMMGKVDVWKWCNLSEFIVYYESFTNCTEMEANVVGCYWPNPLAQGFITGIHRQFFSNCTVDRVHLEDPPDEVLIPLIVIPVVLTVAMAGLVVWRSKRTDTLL

B1: Peptide 20 (SEQ ID NO: 20) (peptide)
peptide: K([γGlu-γGlu-C18 diacid])CNTATCATQRLANFLRHSSNN[αMeF]GPILPPTNVGSNTY-NH2
modifications: disulfide 2-7; N-terminus assumed
SMILES: CC[C@H](C)[C@H](NC(=O)[C@@H]1CCCN1C(=O)CNC(=O)[C@](C)(Cc1ccccc1)NC(=O)[C@H](CC(N)=O)NC(=O)[C@H](CC(N)=O)NC(=O)[C@H](CO)NC(=O)[C@H](CO)NC(=O)[C@H](Cc1c[nH]cn1)NC(=O)[C@H](CCCNC(=N)N)NC(=O)[C@H](CC(C)C)NC(=O)[C@H](Cc1ccccc1)NC(=O)[C@H](CC(N)=O)NC(=O)[C@H](C)NC(=O)[C@H](CC(C)C)NC(=O)[C@H](CCCNC(=N)N)NC(=O)[C@H](CCC(N)=O)NC(=O)[C@@H](NC(=O)[C@H](C)NC(=O)[C@@H]1CSSC[C@H](NC(=O)[C@@H](N)CCCCNC(=O)CC[C@H](NC(=O)CC[C@H](NC(=O)CCCCCCCCCCCCCCCCC(=O)O)C(=O)O)C(=O)O)C(=O)N[C@@H](CC(N)=O)C(=O)N[C@@H]([C@@H](C)O)C(=O)N[C@@H](C)C(=O)N[C@@H]([C@@H](C)O)C(=O)N1)[C@@H](C)O)C(=O)N[C@@H](CC(C)C)C(=O)N1CCC[C@H]1C(=O)N1CCC[C@H]1C(=O)N[C@H](C(=O)N[C@@H](CC(N)=O)C(=O)N[C@H](C(=O)NCC(=O)N[C@@H](CO)C(=O)N[C@@H](CC(N)=O)C(=O)N[C@H](C(=O)N[C@@H](Cc1ccc(O)cc1)C(N)=O)[C@@H](C)O)C(C)C)[C@@H](C)O
EC50 (cAMP production) [1]: 1.85 nM | EC50 (cAMP production) [2]: 0.0104 nM | EC50 (cAMP production) [3]: 4.59 nM | EC50 (cAMP production) [4]: 0.174 nM | Ratio (EC50 hCTR / EC50 hAMYR3) [4]: 26

B2: Peptide 24 (SEQ ID NO: 24) (peptide)
peptide: K([γGlu-γGlu-C18 diacid])CNTATCATQRLANFLVHSSNN[αMeF]GPILPPTRVGSNTY-NH2
modifications: disulfide 2-7; N-terminus assumed
SMILES: CC[C@H](C)[C@H](NC(=O)[C@@H]1CCCN1C(=O)CNC(=O)[C@](C)(Cc1ccccc1)NC(=O)[C@H](CC(N)=O)NC(=O)[C@H](CC(N)=O)NC(=O)[C@H](CO)NC(=O)[C@H](CO)NC(=O)[C@H](Cc1c[nH]cn1)NC(=O)[C@@H](NC(=O)[C@H](CC(C)C)NC(=O)[C@H](Cc1ccccc1)NC(=O)[C@H](CC(N)=O)NC(=O)[C@H](C)NC(=O)[C@H](CC(C)C)NC(=O)[C@H](CCCNC(=N)N)NC(=O)[C@H](CCC(N)=O)NC(=O)[C@@H](NC(=O)[C@H](C)NC(=O)[C@@H]1CSSC[C@H](NC(=O)[C@@H](N)CCCCNC(=O)CC[C@H](NC(=O)CC[C@H](NC(=O)CCCCCCCCCCCCCCCCC(=O)O)C(=O)O)C(=O)O)C(=O)N[C@@H](CC(N)=O)C(=O)N[C@@H]([C@@H](C)O)C(=O)N[C@@H](C)C(=O)N[C@@H]([C@@H](C)O)C(=O)N1)[C@@H](C)O)C(C)C)C(=O)N[C@@H](CC(C)C)C(=O)N1CCC[C@H]1C(=O)N1CCC[C@H]1C(=O)N[C@H](C(=O)N[C@@H](CCCNC(=N)N)C(=O)N[C@H](C(=O)NCC(=O)N[C@@H](CO)C(=O)N[C@@H](CC(N)=O)C(=O)N[C@H](C(=O)N[C@@H](Cc1ccc(O)cc1)C(N)=O)[C@@H](C)O)C(C)C)[C@@H](C)O
EC50 (cAMP production) [1]: 0.755 nM | EC50 (cAMP production) [2]: 0.0177 nM | EC50 (cAMP production) [3]: 1.86 nM | EC50 (cAMP production) [4]: 0.127 nM | Ratio (EC50 hCTR / EC50 hAMYR3) [4]: 15

— patent US20220204580A1 (AstraZeneca / MedImmune, published 2022)
